The values below are quoted from earlier work in PMC5371862.

The target of series [1] is muscarinic acetylcholine receptor M4 (Homo sapiens) (UniProt P08173).
Series [2] addresses muscarinic acetylcholine receptor M1 (Homo sapiens) (UniProt P11229).
In a further series the target is P-type calcium channel (UniProt O00555).
Series [3] concerns the target lethal factor (Bacillus anthracis) (UniProt P15917).
The target of series [4] is edema factor (Bacillus anthracis) (UniProt P40136).
edema factor (Bacillus anthracis), sequence (P40136 34-800): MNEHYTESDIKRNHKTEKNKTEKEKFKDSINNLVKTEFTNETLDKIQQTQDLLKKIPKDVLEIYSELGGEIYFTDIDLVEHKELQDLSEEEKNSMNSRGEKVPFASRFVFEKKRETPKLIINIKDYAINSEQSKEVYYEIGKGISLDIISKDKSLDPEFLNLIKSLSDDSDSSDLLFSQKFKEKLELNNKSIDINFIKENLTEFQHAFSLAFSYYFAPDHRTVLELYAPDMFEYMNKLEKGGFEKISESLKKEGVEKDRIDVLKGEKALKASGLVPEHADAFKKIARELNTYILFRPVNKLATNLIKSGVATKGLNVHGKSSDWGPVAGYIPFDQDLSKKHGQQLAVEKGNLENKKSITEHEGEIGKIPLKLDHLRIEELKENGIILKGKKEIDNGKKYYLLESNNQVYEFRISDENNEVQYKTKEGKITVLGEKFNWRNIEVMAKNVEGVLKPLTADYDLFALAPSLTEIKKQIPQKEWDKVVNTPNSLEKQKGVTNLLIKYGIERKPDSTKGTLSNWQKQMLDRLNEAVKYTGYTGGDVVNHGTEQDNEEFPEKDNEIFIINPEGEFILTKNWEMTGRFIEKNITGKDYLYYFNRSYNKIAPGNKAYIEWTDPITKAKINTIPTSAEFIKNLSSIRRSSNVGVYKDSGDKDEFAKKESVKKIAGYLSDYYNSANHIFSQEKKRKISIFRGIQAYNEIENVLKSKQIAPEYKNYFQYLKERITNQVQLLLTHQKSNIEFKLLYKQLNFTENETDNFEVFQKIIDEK

protective antigen PA63 oligomer PA63, sequence (P13423 197-764): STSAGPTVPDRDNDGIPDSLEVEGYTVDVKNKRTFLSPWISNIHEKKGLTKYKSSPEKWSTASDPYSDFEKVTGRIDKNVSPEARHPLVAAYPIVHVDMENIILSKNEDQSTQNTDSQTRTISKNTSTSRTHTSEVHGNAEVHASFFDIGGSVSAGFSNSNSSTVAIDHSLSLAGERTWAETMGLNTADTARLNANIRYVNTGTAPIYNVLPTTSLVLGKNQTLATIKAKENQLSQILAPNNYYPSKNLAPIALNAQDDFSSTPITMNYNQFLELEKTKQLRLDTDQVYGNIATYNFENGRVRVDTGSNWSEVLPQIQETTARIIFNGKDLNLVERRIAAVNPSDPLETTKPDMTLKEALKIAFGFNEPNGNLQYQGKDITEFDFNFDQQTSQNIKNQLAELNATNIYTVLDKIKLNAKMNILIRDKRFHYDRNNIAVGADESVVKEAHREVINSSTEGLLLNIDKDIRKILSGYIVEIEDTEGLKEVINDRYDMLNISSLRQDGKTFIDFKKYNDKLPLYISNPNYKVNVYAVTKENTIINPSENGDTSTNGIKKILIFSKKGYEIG
muscarinic acetylcholine receptor M4 (Homo sapiens), sequence (P08173 whole entry): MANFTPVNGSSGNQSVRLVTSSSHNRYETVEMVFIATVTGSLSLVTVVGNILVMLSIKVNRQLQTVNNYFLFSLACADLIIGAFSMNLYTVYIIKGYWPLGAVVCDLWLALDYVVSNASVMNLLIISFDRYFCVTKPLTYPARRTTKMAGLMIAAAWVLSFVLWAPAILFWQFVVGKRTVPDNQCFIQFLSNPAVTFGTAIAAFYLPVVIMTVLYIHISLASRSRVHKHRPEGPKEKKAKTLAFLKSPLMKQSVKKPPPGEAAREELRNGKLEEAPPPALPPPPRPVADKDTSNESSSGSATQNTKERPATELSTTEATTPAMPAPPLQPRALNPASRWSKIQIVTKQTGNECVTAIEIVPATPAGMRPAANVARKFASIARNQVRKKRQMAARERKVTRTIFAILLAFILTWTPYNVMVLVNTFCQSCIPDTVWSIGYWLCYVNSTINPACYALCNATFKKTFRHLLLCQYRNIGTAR
muscarinic acetylcholine receptor M1 (Homo sapiens), sequence (P11229 whole entry): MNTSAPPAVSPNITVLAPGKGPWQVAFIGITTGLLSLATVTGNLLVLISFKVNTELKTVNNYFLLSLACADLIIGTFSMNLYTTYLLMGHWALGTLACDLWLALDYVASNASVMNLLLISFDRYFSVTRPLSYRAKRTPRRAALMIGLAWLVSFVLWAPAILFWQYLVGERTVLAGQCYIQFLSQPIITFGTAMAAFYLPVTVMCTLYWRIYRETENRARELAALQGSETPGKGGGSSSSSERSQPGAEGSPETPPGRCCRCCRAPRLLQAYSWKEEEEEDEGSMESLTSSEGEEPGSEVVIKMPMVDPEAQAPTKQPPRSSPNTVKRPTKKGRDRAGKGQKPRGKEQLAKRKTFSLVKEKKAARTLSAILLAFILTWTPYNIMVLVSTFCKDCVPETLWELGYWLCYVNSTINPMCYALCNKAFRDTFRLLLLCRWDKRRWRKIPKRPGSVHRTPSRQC
P-type calcium channel, sequence (O00555 whole entry): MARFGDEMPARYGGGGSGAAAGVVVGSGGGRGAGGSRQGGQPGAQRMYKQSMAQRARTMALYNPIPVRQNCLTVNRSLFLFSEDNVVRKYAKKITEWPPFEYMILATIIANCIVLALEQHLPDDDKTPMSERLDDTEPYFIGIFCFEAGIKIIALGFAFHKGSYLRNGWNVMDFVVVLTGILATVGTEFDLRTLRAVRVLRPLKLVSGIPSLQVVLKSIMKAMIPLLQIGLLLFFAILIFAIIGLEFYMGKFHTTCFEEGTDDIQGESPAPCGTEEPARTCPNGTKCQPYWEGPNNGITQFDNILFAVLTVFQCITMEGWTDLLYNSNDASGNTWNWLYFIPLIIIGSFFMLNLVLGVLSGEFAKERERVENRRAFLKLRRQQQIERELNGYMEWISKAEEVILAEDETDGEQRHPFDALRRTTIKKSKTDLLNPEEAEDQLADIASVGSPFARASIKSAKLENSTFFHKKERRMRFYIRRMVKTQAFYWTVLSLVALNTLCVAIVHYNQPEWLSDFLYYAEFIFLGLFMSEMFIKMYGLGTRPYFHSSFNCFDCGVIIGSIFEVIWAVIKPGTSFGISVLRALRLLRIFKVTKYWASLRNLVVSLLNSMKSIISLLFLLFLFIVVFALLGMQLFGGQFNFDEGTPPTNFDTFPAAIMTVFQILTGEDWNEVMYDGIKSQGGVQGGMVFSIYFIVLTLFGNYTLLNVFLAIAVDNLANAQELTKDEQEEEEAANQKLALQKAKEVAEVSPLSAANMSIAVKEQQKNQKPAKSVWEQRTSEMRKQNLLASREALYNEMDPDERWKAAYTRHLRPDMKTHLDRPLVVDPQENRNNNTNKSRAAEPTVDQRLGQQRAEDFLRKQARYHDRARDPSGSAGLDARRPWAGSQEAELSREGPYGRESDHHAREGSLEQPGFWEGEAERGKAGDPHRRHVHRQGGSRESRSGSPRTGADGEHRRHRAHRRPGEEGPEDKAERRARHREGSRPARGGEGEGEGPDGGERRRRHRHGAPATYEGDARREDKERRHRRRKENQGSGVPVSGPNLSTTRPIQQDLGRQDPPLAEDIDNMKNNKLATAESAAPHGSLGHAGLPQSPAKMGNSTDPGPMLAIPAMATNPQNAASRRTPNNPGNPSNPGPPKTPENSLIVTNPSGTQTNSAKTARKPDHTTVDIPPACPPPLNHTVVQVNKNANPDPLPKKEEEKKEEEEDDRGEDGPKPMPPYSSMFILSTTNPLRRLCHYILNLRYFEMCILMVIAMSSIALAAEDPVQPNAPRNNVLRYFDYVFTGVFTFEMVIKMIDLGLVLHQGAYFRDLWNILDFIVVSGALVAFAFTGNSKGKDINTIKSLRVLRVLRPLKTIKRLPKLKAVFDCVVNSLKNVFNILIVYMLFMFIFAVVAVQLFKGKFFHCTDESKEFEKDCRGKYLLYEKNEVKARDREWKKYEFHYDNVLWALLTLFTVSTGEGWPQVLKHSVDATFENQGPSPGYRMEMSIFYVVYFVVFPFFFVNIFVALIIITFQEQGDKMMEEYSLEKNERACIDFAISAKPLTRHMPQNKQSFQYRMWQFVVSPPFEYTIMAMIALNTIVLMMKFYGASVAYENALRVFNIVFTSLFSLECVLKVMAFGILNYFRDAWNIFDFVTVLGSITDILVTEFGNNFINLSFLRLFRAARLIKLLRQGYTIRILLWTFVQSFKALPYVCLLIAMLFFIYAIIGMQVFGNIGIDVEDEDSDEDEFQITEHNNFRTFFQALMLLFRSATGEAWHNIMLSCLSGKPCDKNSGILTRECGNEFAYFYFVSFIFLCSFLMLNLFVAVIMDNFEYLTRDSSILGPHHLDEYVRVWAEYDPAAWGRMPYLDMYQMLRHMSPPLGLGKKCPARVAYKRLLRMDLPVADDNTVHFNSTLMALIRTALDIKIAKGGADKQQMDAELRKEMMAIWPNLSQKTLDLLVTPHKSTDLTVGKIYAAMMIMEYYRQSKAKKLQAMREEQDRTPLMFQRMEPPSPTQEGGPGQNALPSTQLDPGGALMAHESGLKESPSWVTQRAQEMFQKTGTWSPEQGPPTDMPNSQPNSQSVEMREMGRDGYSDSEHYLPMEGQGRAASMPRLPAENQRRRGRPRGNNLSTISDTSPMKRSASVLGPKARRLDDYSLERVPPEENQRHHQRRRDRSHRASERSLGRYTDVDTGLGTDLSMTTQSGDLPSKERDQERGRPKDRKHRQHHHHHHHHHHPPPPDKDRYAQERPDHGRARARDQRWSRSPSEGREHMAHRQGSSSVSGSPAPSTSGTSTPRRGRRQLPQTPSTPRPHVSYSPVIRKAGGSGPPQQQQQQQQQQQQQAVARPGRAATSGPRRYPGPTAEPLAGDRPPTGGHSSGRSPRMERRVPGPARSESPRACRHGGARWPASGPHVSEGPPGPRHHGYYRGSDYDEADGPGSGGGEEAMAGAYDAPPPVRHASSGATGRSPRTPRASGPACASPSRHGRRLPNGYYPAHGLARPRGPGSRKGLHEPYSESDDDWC
muscarinic toxin MT7, sequence (Q8QGR0 22-86): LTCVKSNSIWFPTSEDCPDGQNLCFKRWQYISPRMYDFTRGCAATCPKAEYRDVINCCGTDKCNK
muscarinic toxin MT3, sequence (P81031 whole entry): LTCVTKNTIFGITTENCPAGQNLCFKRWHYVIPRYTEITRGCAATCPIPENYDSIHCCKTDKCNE
omega-agatoxin Aga-IVA, sequence (P30288 whole entry): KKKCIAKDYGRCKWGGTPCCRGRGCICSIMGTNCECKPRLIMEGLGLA

As a reminder, the Ki is a measure of affinity in units of concentration, obtained from inhibition or displacement. Regarding “muscarinic toxin MT3 (from UniProt P81031)”, in series [1], the Ki is 2 nM.
On to “muscarinic toxin MT7 (from UniProt Q8QGR0)”, for which the Ki in series [2] was 0.014 nM.
As usually defined, the Kd is the constant that tells how readily two partners part at equilibrium. “omega-agatoxin Aga-IVA (from UniProt P30288)”: the Kd in the series with P-type calcium channel is 3 nM.
Turning to “protective antigen PA63 oligomer PA63 (from UniProt P13423)”, the Kd in series [3] and in series [4] was 1 nM in each case.
